In patent US6656471:

Target: HLA class I (human)
Experiment: cell-based or functional assay

W6/32, the class I-specific antibody, from hybridoma culture supernatants (ATCC: HB95)
reduction in HIV-1 envelope-specific CTL activity (PBMCs from LB, E:T 25:1, 1:4 dilution of W6/32 supernatant): 73% | specific lysis value with W6/32 (E:T 25:1): 6.2% | specific lysis value without W6/32 (E:T 25:1): 23.2%
